# Laboratory results from paper PMC9352680, “A comprehensive thermodynamic model for RNA binding by the Saccharomyces cerevisiae Pumilio protein PUF4”.
# Numbering of substitutions follows the chain as printed. Names may count otherwise.
# T1: PUF4 RNA-binding domain (Saccharomyces cerevisiae, UniProt P25339 537-888)
# T1 sequence: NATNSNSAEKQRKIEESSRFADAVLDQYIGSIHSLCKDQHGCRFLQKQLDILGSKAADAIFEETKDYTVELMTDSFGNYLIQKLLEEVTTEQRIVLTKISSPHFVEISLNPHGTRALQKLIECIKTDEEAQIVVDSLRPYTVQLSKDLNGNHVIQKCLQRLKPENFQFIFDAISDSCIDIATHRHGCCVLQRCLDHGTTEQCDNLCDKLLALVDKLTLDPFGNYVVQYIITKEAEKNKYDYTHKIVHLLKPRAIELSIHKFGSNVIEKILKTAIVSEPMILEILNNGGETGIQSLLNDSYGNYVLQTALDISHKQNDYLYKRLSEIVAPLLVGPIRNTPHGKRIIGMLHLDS
# B1: Ie_S2_P3E.2_K3.1_C3.2_H3.1_A3.1_F3.1_[+8CCTCT]_T3.2 (ssRNA)
# RNA: UUUGAUUAAUAUGAUAUCGUUCUUUCUCUUGUAUAUACCUCUUAUUCUUUCUCGAUAUCAUAUUAAUCUUU
# B2: Ie_S2_P4E.1_K4.1_C4.1_H4.1_[+1T]_A4.1_F4.1_T4.1 (ssRNA)
# RNA: UUUGAUUAAUAUGAUAUCGUUCUUUCUUUGUAUAUUAUUCUUUCUCGAUAUCAUAUUAAUCUUU
# B3: Ie_S2_P4E.1_K4.1_C4.1_H4.1_[+1CCT]_A4.1_F4.1_T4.1 (ssRNA)
# RNA: UUUGAUUAAUAUGAUAUCGUUCUUUCUUCCUGUAUAUUAUUCUUUCUCGAUAUCAUAUUAAUCUUU
# B4: Ie_S2_P4E.1_K4.1_C4.1_H4.1_[+1TTC]_A4.1_F4.1_T4.1 (ssRNA)
# RNA: B3 RNA with C29U, C30U, U31C
# B5: Ie_S2_P4E.1_K4.1_C4.1_H4.1_[+1TCT]_A4.1_F4.1_T4.1 (ssRNA)
# RNA: B3 RNA with C29U
# B6: Ie_S2_P4E.1_K4.1_C4.1_H4.1_[+1CTT]_A4.1_F4.1_T4.1 (ssRNA)
# RNA: B3 RNA with C30U
# B7: Ie_S2_P3E.2_K3.1_C3.2_H3.1_[+4CCC]_A3.1_F3.1_T3.2 (ssRNA)
# RNA: UUUGAUUAAUAUGAUAUCGUUCUUUCUCUUGUACCCUAUAUAUUCUUUCUCGAUAUCAUAUUAAUCUUU
# B8: Ie_S2_P3E.2_K3.1_C3.2_H3.1_[+4CTT]_A3.1_F3.1_T3.2 (ssRNA)
# RNA: B7 RNA with C35U, C36U
# B9: Ie_S2_P3E.2_K3.1_C3.2_H3.1_A3.1_F3.1_[+8TCC]_T3.2 (ssRNA)
# RNA: B7 RNA with C34U, C35A, C36U, U37A, A38U, U39C, A40C
# B10: Ie_S2_P3E.2_K3.1_C3.2_H3.1_A3.1_F3.1_[+8CCT]_T3.2 (ssRNA)
# RNA: B7 RNA with C34U, C35A, C36U, U37A, A38C, U39C, A40U
# B11: Ie_S2_P3E.2_K3.1_C3.2_H3.1_A3.1_F3.1_[+8TTC]_T3.2 (ssRNA)
# RNA: B7 RNA with C34U, C35A, C36U, U37A, A38U, A40C
# B12: Ie_S2_P3E.2_K3.1_C3.2_H3.1_A3.1_F3.1_[+8CTC]_T3.2 (ssRNA)
# RNA: B7 RNA with C34U, C35A, C36U, U37A, A38C, A40C
# B13: Ie_S2_P3E.2_K3.1_C3.2_H3.1_A3.1_F3.1_[+7CTC]_T3.2 (ssRNA)
# RNA: B7 RNA with C34U, C35A, C36U, U37C, A38U, U39C
# B14: Ie_S2_P3E.2_K3.1_C3.2_H3.1_A3.1_F3.1_[+7TCC]_T3.2 (ssRNA)
# RNA: B7 RNA with C34U, C35A, C36U, A38C, U39C
# B15: Ie_S2_P3E.2_K3.1_C3.2_H3.1_[+4CCT]_A3.1_F3.1_T3.2 (ssRNA)
# RNA: B7 RNA with C36U
# B16: Ie_S2_P3E.2_K3.1_C3.2_H3.1_A3.1_F3.1_[+8TCT]_T3.2 (ssRNA)
# RNA: B7 RNA with C34U, C35A, C36U, U37A, A38U, U39C, A40U
# B17: Ie_S2_P3E.2_K3.1_C3.2_H3.1_A3.1_F3.1_[+8CCC]_T3.2 (ssRNA)
# RNA: B7 RNA with C34U, C35A, C36U, U37A, A38C, U39C, A40C
# B18: Ie_S2_P3E.2_K3.1_C3.2_H3.1_A3.1_F3.1_[+7TTC]_T3.2 (ssRNA)
# RNA: B7 RNA with C34U, C35A, C36U, A38U, U39C
# B19: Ie_S2_P3E.2_K3.1_C3.2_H3.1_A3.1_F3.1_[+7CCC]_T3.2 (ssRNA)
# RNA: B7 RNA with C34U, C35A, C36U, U37C, A38C, U39C
# B20: Ie_S2_P3E.2_K3.1_C3.2_H3.1_[+4CCCTT]_A3.1_F3.1_T3.2 (ssRNA)
# RNA: UUUGAUUAAUAUGAUAUCGUUCUUUCUCUUGUACCCUUUAUAUAUUCUUUCUCGAUAUCAUAUUAAUCUUU
# B21: Ie_S2_P3E.2_K3.1_C3.2_H3.1_A3.1_F3.1_[+8TCTCT]_T3.2 (ssRNA)
# RNA: B1 RNA with C38U
# B22: Ie_S2_P3E.2_K3.1_C3.2_H3.1_A3.1_F3.1_[+8CTCTC]_T3.2 (ssRNA)
# RNA: B1 RNA with C39U, U40C, C41U, U42C
# B23: Ie_S2_P3E.2_K3.1_C3.2_H3.1_A3.1_F3.1_[+8CCCTT]_T3.2 (ssRNA)
# RNA: B1 RNA with U40C, C41U
# B24: Ie_S2_P3E.2_K3.1_C3.2_H3.1_A3.1_F3.1_[+8TTCCT]_T3.2 (ssRNA)
# RNA: B1 RNA with C38U, C39U, U40C
# B25: Ie_S2_P3E.2_K3.1_C3.2_H3.1_A3.1_[+5C]_F3.1_T3.2 (ssRNA)
# RNA: UUUGAUUAAUAUGAUAUCGUUCUUUCUCUUGUAUCAUAUAUUCUUUCUCGAUAUCAUAUUAAUCUUU
# B26: Ie_S2_P3E.2_K3.1_C3.2_H3.1_A3.1_[+6C]_F3.1_T3.2 (ssRNA)
# RNA: B25 RNA with C35A, A36C
# B27: Ie_S2_P3E.2_K3.1_C3.2_H3.1_A3.1_F3.1_[+8T]_T3.2 (ssRNA)
# RNA: B25 RNA with C35A, A36U, U37A, A38U
# B28: Ie_S2_P3E.2_K3.1_C3.2_H3.1_A3.1_F3.1_[+8C]_T3.2 (ssRNA)
# RNA: B25 RNA with C35A, A36U, U37A, A38C
# B29: Ie_S2_P3E.2_K3.1_C3.2_H3.1_A3.1_F3.1_[+7C]_T3.2 (ssRNA)
# RNA: B25 RNA with C35A, A36U, U37C
# B30: Ie_S2_P3E.2_K3.1_C3.2_H3.1_[+4CTCT]_A3.1_F3.1_T3.2 (ssRNA)
# RNA: UUUGAUUAAUAUGAUAUCGUUCUUUCUCUUGUACUCUUAUAUAUUCUUUCUCGAUAUCAUAUUAAUCUUU
# B31: Ie_S2_P3E.2_K3.1_C3.2_H3.1_[+4CCCT]_A3.1_F3.1_T3.2 (ssRNA)
# RNA: B30 RNA with U35C
# B32: Ie_S2_P3E.2_K3.1_C3.2_H3.1_A3.1_F3.1_[+8CCTC]_T3.2 (ssRNA)
# RNA: B30 RNA with C34U, U35A, C36U, U37A, U38C, A39C, A41C
# B33: Ie_S2_P3E.2_K3.1_C3.2_H3.1_A3.1_F3.1_[+8TCTC]_T3.2 (ssRNA)
# RNA: B30 RNA with C34U, U35A, C36U, U37A, A39C, A41C
# B34: Ie_S2_P3E.2_K3.1_C3.2_H3.1_A3.1_F3.1_[+8TTCC]_T3.2 (ssRNA)
# RNA: B30 RNA with C34U, U35A, C36U, U37A, A39U, U40C, A41C
# B35: Ie_S2_P3E.2_K3.1_C3.2_H3.1_[+4CCTC]_A3.1_F3.1_T3.2 (ssRNA)
# RNA: B30 RNA with U35C, C36U, U37C
# B36: Ie_S2_P4E.1_K4.1_C4.1_H4.1_[+1CCTC]_A4.1_F4.1_T4.1 (ssRNA)
# RNA: UUUGAUUAAUAUGAUAUCGUUCUUUCUUCCUCGUAUAUUAUUCUUUCUCGAUAUCAUAUUAAUCUUU
# B37: Ie_S2_P4E.1_K4.1_C4.1_H4.1_[+1CCCT]_A4.1_F4.1_T4.1 (ssRNA)
# RNA: B36 RNA with U31C, C32U
# B38: Ie_S2_P4E.1_K4.1_C4.1_H4.1_[+1TC]_A4.1_F4.1_T4.1 (ssRNA)
# RNA: UUUGAUUAAUAUGAUAUCGUUCUUUCUUUCGUAUAUUAUUCUUUCUCGAUAUCAUAUUAAUCUUU
# B39: Ie_S2_P3E.2_K3.1_C3.2_H3.1_A3.1_[+5CT]_F3.1_T3.2 (ssRNA)
# RNA: UUUGAUUAAUAUGAUAUCGUUCUUUCUCUUGUAUCUAUAUAUUCUUUCUCGAUAUCAUAUUAAUCUUU
# B40: Ie_S2_P3E.2_K3.1_C3.2_H3.1_A3.1_F3.1_[+7CC]_T3.2 (ssRNA)
# RNA: B39 RNA with C35A, A37C, U38C
# B41: Ie_S2_P3E.2_K3.1_C3.2_H3.1_A3.1_F3.1_[+8TT]_T3.2 (ssRNA)
# RNA: B39 RNA with C35A, A39U
# B42: Ie_S2_P3E.2_K3.1_C3.2_H3.1_A3.1_F3.1_[+7CT]_T3.2 (ssRNA)
# RNA: B39 RNA with C35A, A37C
# B43: Ie_S2_P3E.2_K3.1_C3.2_H3.1_A3.1_[+5CC]_F3.1_T3.2 (ssRNA)
# RNA: B39 RNA with U36C
# B44: Ie_S2_P3E.2_K3.1_C3.2_H3.1_A3.1_F3.1_[+8TC]_T3.2 (ssRNA)
# RNA: B39 RNA with C35A, A39C
# B45: Ie_S2_P3E.2_K3.1_C3.2_H3.1_A3.1_F3.1_[+8CT]_T3.2 (ssRNA)
# RNA: B39 RNA with C35A, U38C, A39U
# B46: Ic_S2_P3E.1_K3.1_C3.1_H3.1_A3.1_[T5C]_F3.1_[A8G]_T3.1 (ssRNA)
# RNA: UUUGAUUAAUAUGAUAUCGUUCUUUCUUGUACAUGUUCUUUCUCGAUAUCAUAUUAAUCUUU
# B47: Ib_S2_P3E.1_K3.1_C3.1_H3.1_A3.1_[T5C]_F3.1_[A8T]_T3.1 (ssRNA)
# RNA: B46 RNA with G35U
# B48: Ia_S2_P3E.1_K3.1_C3.1_H3.1_[G2T]_A3.1_F3.1_T3.1 (ssRNA)
# RNA: B46 RNA with G29U, C32U, G35A
# B49: Ic_S2_P3E.1_K3.1_C3.1_H3.1_A3.1_[A6G]_F3.1_[A8G]_T3.1 (ssRNA)
# RNA: B46 RNA with C32U, A33G
# B50: Ic_S2_P3E.1_K3.1_C3.1_H3.1_A3.1_[T5C]_F3.1_[A8C]_T3.1 (ssRNA)
# RNA: B46 RNA with G35C
# Target: T1, PUF4 RNA-binding domain
# Assay: Mg; RNA-MaP; 20 mM Na-HEPES pH 7.4, 30 mM KOAc, 0.75 mM MgCl2, 0.1% Tween-20, 5% glycerol, 0.1 mg/mL BSA, 2 mM DTT; 25 C; 0.0125-409.6 nM protein
# Details: tags: N-His6-TEV cleaved; C-SNAP kept, Cy3B-labelled; label: tethered on chip by stalled RNA polymerase
row,Binder,Kd [nM]
1,B1,4.17
2,B2,0.232
3,B3,0.245
4,B4,7.09
5,B5,0.234
6,B6,0.196
7,B7,1.82
8,B8,1.08
9,B9,2.84
10,B10,2.8
11,B11,2.96
12,B12,5.33
13,B13,14
14,B14,6.48
15,B15,1.4
16,B16,2.19
17,B17,7.81
18,B18,9.85
19,B19,19.5
20,B20,6.09
21,B21,3.44
22,B22,5.38
23,B23,3.77
24,B24,2.02
25,B25,0.639

row,Binder,Kd [nM]
1,B26,0.437
2,B27,1.66
3,B28,2.93
4,B29,5.11
5,B30,3.27
6,B31,2.61
7,B32,4.3
8,B33,3.5
9,B34,2.56
10,B35,4.82
11,B36,5.67
12,B37,0.188
13,B38,8.48
14,B39,3.75
15,B40,17.5
16,B41,1.56
17,B42,3.3
18,B43,7.04
19,B44,2.05
20,B45,3.03
21,B46,10.4
22,B47,1.62
23,B48,366
24,B49,44.9
25,B50,11.1
